This note sets out measurements from patent US20170260508A1 (FRED HUTCHINSON CANCER RESEARCH CENTER, published 2017).

The labels stand for the following.
B1: LILRB2 H92S on 293T cells (receptor)
chain: QTGTIPKPTLWAEPDSVITQGSPVTLSCQGSLEAQEYRLYREKKSASWITRIRPELVKNGQFHIPSITWESTGRYGCQYYSRARWSELSDPLVLVMTGAYPKPTLSAQPSPVVTSGGRVTLQCESQVAFGGFILCKEGEEEHPQCLNSQPHARGSSRAIFSVGPVSPNRRWSHRCYGYDLNSPYVWSSPSDLLELLVPGVSKKPSLSVQPGPVVAPGESLTLQCVSDVGYDRFVLYKEGERDLRQLPGRQPQAGLSQANFTLGPVSRSYGGQYRCYGAHNLSSECSAPSDPLDILITGQIRGTPFISVQPGPTVASGENVTLLCQSWRQFHTFLLTKAGAADAPLRLRSIHEYPKYQAEFPMSPVTSAHAGTYRCYGSLNSDPYLLSHPSEPLELVVSGPSMGSSPPPTGPISTPGPEDQPLTPTGSDPQSGLGRHLGVVIGILVAVVLLLLLLLLLFLILRHRRQGKHWTSTQRKADFQHPAGAVGPEPTDRGLQWRSSPAADAQEENLYAAVKDTQPEDGVEMDTRAAASEAPQDVTYAQLHSLTLRRKATEPPPSQEREPPAEPSIYATLAIH
B2: LILRB2 G392D on 293T cells (receptor)
chain: QTGTIPKPTLWAEPDSVITQGSPVTLSCQGSLEAQEYRLYREKKSASWITRIRPELVKNGQFHIPSITWEHTGRYGCQYYSRARWSELSDPLVLVMTGAYPKPTLSAQPSPVVTSGGRVTLQCESQVAFGGFILCKEGEEEHPQCLNSQPHARGSSRAIFSVGPVSPNRRWSHRCYGYDLNSPYVWSSPSDLLELLVPGVSKKPSLSVQPGPVVAPGESLTLQCVSDVGYDRFVLYKEGERDLRQLPGRQPQAGLSQANFTLGPVSRSYGGQYRCYGAHNLSSECSAPSDPLDILITGQIRGTPFISVQPGPTVASGENVTLLCQSWRQFHTFLLTKAGAADAPLRLRSIHEYPKYQAEFPMSPVTSAHADTYRCYGSLNSDPYLLSHPSEPLELVVSGPSMGSSPPPTGPISTPGPEDQPLTPTGSDPQSGLGRHLGVVIGILVAVVLLLLLLLLLFLILRHRRQGKHWTSTQRKADFQHPAGAVGPEPTDRGLQWRSSPAADAQEENLYAAVKDTQPEDGVEMDTRAAASEAPQDVTYAQLHSLTLRRKATEPPPSQEREPPAEPSIYATLAIH
B3: LILRB2 T393E on 293T cells (receptor)
chain: QTGTIPKPTLWAEPDSVITQGSPVTLSCQGSLEAQEYRLYREKKSASWITRIRPELVKNGQFHIPSITWEHTGRYGCQYYSRARWSELSDPLVLVMTGAYPKPTLSAQPSPVVTSGGRVTLQCESQVAFGGFILCKEGEEEHPQCLNSQPHARGSSRAIFSVGPVSPNRRWSHRCYGYDLNSPYVWSSPSDLLELLVPGVSKKPSLSVQPGPVVAPGESLTLQCVSDVGYDRFVLYKEGERDLRQLPGRQPQAGLSQANFTLGPVSRSYGGQYRCYGAHNLSSECSAPSDPLDILITGQIRGTPFISVQPGPTVASGENVTLLCQSWRQFHTFLLTKAGAADAPLRLRSIHEYPKYQAEFPMSPVTSAHAGEYRCYGSLNSDPYLLSHPSEPLELVVSGPSMGSSPPPTGPISTPGPEDQPLTPTGSDPQSGLGRHLGVVIGILVAVVLLLLLLLLLFLILRHRRQGKHWTSTQRKADFQHPAGAVGPEPTDRGLQWRSSPAADAQEENLYAAVKDTQPEDGVEMDTRAAASEAPQDVTYAQLHSLTLRRKATEPPPSQEREPPAEPSIYATLAIH
B4: full-length LILRB2 R95E on 293T cells (receptor)
chain: QTGTIPKPTLWAEPDSVITQGSPVTLSCQGSLEAQEYRLYREKKSASWITRIRPELVKNGQFHIPSITWEHTGEYGCQYYSRARWSELSDPLVLVMTGAYPKPTLSAQPSPVVTSGGRVTLQCESQVAFGGFILCKEGEEEHPQCLNSQPHARGSSRAIFSVGPVSPNRRWSHRCYGYDLNSPYVWSSPSDLLELLVPGVSKKPSLSVQPGPVVAPGESLTLQCVSDVGYDRFVLYKEGERDLRQLPGRQPQAGLSQANFTLGPVSRSYGGQYRCYGAHNLSSECSAPSDPLDILITGQIRGTPFISVQPGPTVASGENVTLLCQSWRQFHTFLLTKAGAADAPLRLRSIHEYPKYQAEFPMSPVTSAHAGTYRCYGSLNSDPYLLSHPSEPLELVVSGPSMGSSPPPTGPISTPGPEDQPLTPTGSDPQSGLGRHLGVVIGILVAVVLLLLLLLLLFLILRHRRQGKHWTSTQRKADFQHPAGAVGPEPTDRGLQWRSSPAADAQEENLYAAVKDTQPEDGVEMDTRAAASEAPQDVTYAQLHSLTLRRKATEPPPSQEREPPAEPSIYATLAIH
notes: also called single mutation in R95
B5: full-length LILRB2 G94D on 293T cells (receptor)
chain: QTGTIPKPTLWAEPDSVITQGSPVTLSCQGSLEAQEYRLYREKKSASWITRIRPELVKNGQFHIPSITWEHTDRYGCQYYSRARWSELSDPLVLVMTGAYPKPTLSAQPSPVVTSGGRVTLQCESQVAFGGFILCKEGEEEHPQCLNSQPHARGSSRAIFSVGPVSPNRRWSHRCYGYDLNSPYVWSSPSDLLELLVPGVSKKPSLSVQPGPVVAPGESLTLQCVSDVGYDRFVLYKEGERDLRQLPGRQPQAGLSQANFTLGPVSRSYGGQYRCYGAHNLSSECSAPSDPLDILITGQIRGTPFISVQPGPTVASGENVTLLCQSWRQFHTFLLTKAGAADAPLRLRSIHEYPKYQAEFPMSPVTSAHAGTYRCYGSLNSDPYLLSHPSEPLELVVSGPSMGSSPPPTGPISTPGPEDQPLTPTGSDPQSGLGRHLGVVIGILVAVVLLLLLLLLLFLILRHRRQGKHWTSTQRKADFQHPAGAVGPEPTDRGLQWRSSPAADAQEENLYAAVKDTQPEDGVEMDTRAAASEAPQDVTYAQLHSLTLRRKATEPPPSQEREPPAEPSIYATLAIH
notes: also called single mutation in G94
B6: LILRB2 MHC-S1 mutant (R59A/Y61A) on 293T cells (receptor)
chain: QTGTIPKPTLWAEPDSVITQGSPVTLSCQGSLEAQEYALAREKKSASWITRIRPELVKNGQFHIPSITWEHTGRYGCQYYSRARWSELSDPLVLVMTGAYPKPTLSAQPSPVVTSGGRVTLQCESQVAFGGFILCKEGEEEHPQCLNSQPHARGSSRAIFSVGPVSPNRRWSHRCYGYDLNSPYVWSSPSDLLELLVPGVSKKPSLSVQPGPVVAPGESLTLQCVSDVGYDRFVLYKEGERDLRQLPGRQPQAGLSQANFTLGPVSRSYGGQYRCYGAHNLSSECSAPSDPLDILITGQIRGTPFISVQPGPTVASGENVTLLCQSWRQFHTFLLTKAGAADAPLRLRSIHEYPKYQAEFPMSPVTSAHAGTYRCYGSLNSDPYLLSHPSEPLELVVSGPSMGSSPPPTGPISTPGPEDQPLTPTGSDPQSGLGRHLGVVIGILVAVVLLLLLLLLLFLILRHRRQGKHWTSTQRKADFQHPAGAVGPEPTDRGLQWRSSPAADAQEENLYAAVKDTQPEDGVEMDTRAAASEAPQDVTYAQLHSLTLRRKATEPPPSQEREPPAEPSIYATLAIH
B7: LILRB2 T93A on 293T cells (receptor)
chain: QTGTIPKPTLWAEPDSVITQGSPVTLSCQGSLEAQEYRLYREKKSASWITRIRPELVKNGQFHIPSITWEHAGRYGCQYYSRARWSELSDPLVLVMTGAYPKPTLSAQPSPVVTSGGRVTLQCESQVAFGGFILCKEGEEEHPQCLNSQPHARGSSRAIFSVGPVSPNRRWSHRCYGYDLNSPYVWSSPSDLLELLVPGVSKKPSLSVQPGPVVAPGESLTLQCVSDVGYDRFVLYKEGERDLRQLPGRQPQAGLSQANFTLGPVSRSYGGQYRCYGAHNLSSECSAPSDPLDILITGQIRGTPFISVQPGPTVASGENVTLLCQSWRQFHTFLLTKAGAADAPLRLRSIHEYPKYQAEFPMSPVTSAHAGTYRCYGSLNSDPYLLSHPSEPLELVVSGPSMGSSPPPTGPISTPGPEDQPLTPTGSDPQSGLGRHLGVVIGILVAVVLLLLLLLLLFLILRHRRQGKHWTSTQRKADFQHPAGAVGPEPTDRGLQWRSSPAADAQEENLYAAVKDTQPEDGVEMDTRAAASEAPQDVTYAQLHSLTLRRKATEPPPSQEREPPAEPSIYATLAIH
B8: LILRB2 Q99R on 293T cells (receptor)
chain: QTGTIPKPTLWAEPDSVITQGSPVTLSCQGSLEAQEYRLYREKKSASWITRIRPELVKNGQFHIPSITWEHTGRYGCRYYSRARWSELSDPLVLVMTGAYPKPTLSAQPSPVVTSGGRVTLQCESQVAFGGFILCKEGEEEHPQCLNSQPHARGSSRAIFSVGPVSPNRRWSHRCYGYDLNSPYVWSSPSDLLELLVPGVSKKPSLSVQPGPVVAPGESLTLQCVSDVGYDRFVLYKEGERDLRQLPGRQPQAGLSQANFTLGPVSRSYGGQYRCYGAHNLSSECSAPSDPLDILITGQIRGTPFISVQPGPTVASGENVTLLCQSWRQFHTFLLTKAGAADAPLRLRSIHEYPKYQAEFPMSPVTSAHAGTYRCYGSLNSDPYLLSHPSEPLELVVSGPSMGSSPPPTGPISTPGPEDQPLTPTGSDPQSGLGRHLGVVIGILVAVVLLLLLLLLLFLILRHRRQGKHWTSTQRKADFQHPAGAVGPEPTDRGLQWRSSPAADAQEENLYAAVKDTQPEDGVEMDTRAAASEAPQDVTYAQLHSLTLRRKATEPPPSQEREPPAEPSIYATLAIH
B9: LILRB2 Ig2 domain expressed on 293T cells (receptor)
chain: AYPKPTLSAQPSPVVTSGGRVTLQCESQVAFGGFILCKEGEEEHPQCLNSQPHARGSSRAIFSVGPVSPNRRWSHRCYGYDLNSPYVWSSPSDLLELLVP
notes: The range is stated for the chimeric reporter constructs; also called 2nd Ig domain
B10: LILRB2 Ig3 domain expressed on 293T cells (receptor)
chain: VSKKPSLSVQPGPVVAPGESLTLQCVSDVGYDRFVLYKEGERDLRQLPGRQPQAGLSQANFTLGPVSRSYGGQYRCYGAHNLSSECSAPSDPLDILITGQ
notes: The range is stated for the chimeric reporter constructs; also called 3rd Ig domain
B11: LILRB2 Ig1 domain expressed on 293T cells (receptor)
chain: GTIPKPTLWAEPDSVITQGSPVTLSCQGSLEAQEYRLYREKKSASWITRIRPELVKNGQFHIPSITWEHTGRYGCQYYSRARWSELSDPLVLVMTG
notes: The range is stated for the chimeric reporter constructs; also called 1st Ig domain

The first assay addresses T1, Angptl2-FLAG, full-length human Angptl2 secreted from transfected 293T cells (human, UniProt Q9UKU9 23-493).
T1 construct: Runs partly as a high molecular weight (>250 kD) multimer; also called full-length Angptl2; FLAG-tagged Angptl2; not shown: FLAG tag at the C terminus
T1 sequence: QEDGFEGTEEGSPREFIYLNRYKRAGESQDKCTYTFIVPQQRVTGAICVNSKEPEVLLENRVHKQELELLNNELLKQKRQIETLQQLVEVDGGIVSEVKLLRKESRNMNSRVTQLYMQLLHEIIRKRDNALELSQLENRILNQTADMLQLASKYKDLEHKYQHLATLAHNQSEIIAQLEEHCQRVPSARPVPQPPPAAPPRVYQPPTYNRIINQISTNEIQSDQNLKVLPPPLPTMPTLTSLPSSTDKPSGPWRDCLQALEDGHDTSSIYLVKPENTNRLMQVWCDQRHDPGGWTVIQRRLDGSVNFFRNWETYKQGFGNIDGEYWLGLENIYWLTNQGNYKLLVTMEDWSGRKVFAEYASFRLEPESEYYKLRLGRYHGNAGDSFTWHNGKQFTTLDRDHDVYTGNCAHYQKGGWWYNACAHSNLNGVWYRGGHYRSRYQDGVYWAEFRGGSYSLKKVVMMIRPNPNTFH
The assay can be described thus: flow cytometry, ligand on mutant LILRB2 (FIG. 6G). Here is the method: (§1) Flow cytometry. […] Cells were harvested at 48 h for analysis. […] Anti-LILRB2-PE was used as indicated. Cells were analyzed using either a FACSCalibur or FACSAria instrument (Becton Dickinson).
Consider B1, for which the binding result is “binds”. Regarding B2, the binding result is on record as “binds”.

Consider B3, for which the binding result was “binds”. With B4, the binding result is “binds”.

In the case of B5, the binding result is reported as “binds”. As for B6, the binding result is “binds”. B7: the binding result is listed as “binds”. The same measure, in the same setting: in the case of B8 it was “binds”.

The target of the next assay is T1, Angptl2-FLAG, full-length human Angptl2 …. Nature of the assay: flow cytometry, Angptl2 on 293T cells expressing the domain. Here is the method:
as §1
LILRB2 contains four extracellular immunoglobulin (Ig)-like domains. Takai et al., J Biomed Biotechnol. 2011; 2011:275302. […] To test this hypothesis, a number of domain and site-specific mutations of LILRB2 were generated for the flow cytometry-based cell surface ligand binding assay and chimeric reporter assay.
For B9, the binding result was “no binding”. Take B10: the binding result was “no binding”.

On to B11, for which the binding result is “no binding”.
